# Laboratory results published in article PMC2603305 (Biochemistry, 2008).
# Positions count from the first letter of the chain named. Like-named read-outs stand apart in the source and are kept apart here.
# B1: Kvβ2 (β-subunit of the voltage-gated potassium channel) (Rattus norvegicus) (protein)
# chain: YRNLGKSGLRVSCLGLGTWVTFGGQITDEMAEHLMTLAYDNGINLFDTAEVYAAGKAEVVLGNIIKKKGWRRSSLVITTKIFWGGKAETERGLSRKHIIEGLKASLERLQLEYVDVVFANRPDPNTPMEETVRAMTHVINQGMAMYWGTSRWSSMEIMEAYSVARQFNLIPPICEQAEYHMFQREKVEVQLPELFHKIGVGAMTWSPLACGIVSGKYDSGIPPYSRASLKGYQWLKDKILSEEGRRQQAKLKELQAIAERLGCTLPQLAIAWCLRNEGVSSVLLGASNAEQLMENIGAIQVLPKLSSSIVHEIDSILGNKPYSKKDYRS
# How the values were obtained:
# [1] = molecular target: T1, Kvβ2 (β-subunit of the voltage-gated potassium channel) (Rattus norvegicus, UniProt P62483); assay: intrinsic fluorescence titration; type: binding
# T1 sequence (P62483 39-367): B1 chain
# [2] = molecular target: T2, Kvβ2:Y90F (Rattus norvegicus, UniProt P62483, Y90F); assay: intrinsic fluorescence titration; type: binding
# T2 sequence (P62483 39-367 Y90F): B1 chain with Y52F
# [3] = tested on: O=C1C(=O)c2ccccc2-c2ccccc21; assay: steady-state NADPH oxidation kinetics; type: biochemical, Rattus norvegicus
# [4] = molecular target: T1, Kvβ2 (β-subunit of the voltage-gated potassium channel); assay: NADPH oxidation, specific activity at […]; type: biochemical
# [5] = molecular target: T1, Kvβ2 (β-subunit of the voltage-gated potassium channel); assay: NADPH oxidation, specific activity at […]; type: biochemical; remark: listed apart in the source
# [6] = substrate: O=Cc1ccc([N+](=O)[O-])cc1; assay: purified protein; details: NADPH active site, Tyr-90 acid-base catalyst; binds after NADPH
# [7] = substrate: CC(=O)C=O; assay: steady-state NADPH oxidation kinetics; type: biochemical, Rattus norvegicus; details: NADPH
# [8] = substrate: CC(=O)c1ccc([N+](=O)[O-])cc1; assay: steady-state NADPH oxidation kinetics; type: biochemical, Rattus norvegicus; details: NADPH active site, Tyr-90 acid-base catalyst
molecule,measurement,setting,value
NC(=O)C1=CN([C@@H]2O[C@H](COP(=O)(O)OP(=O)(O)OC[C@H]3O[C@@H](n4cnc5c(N)ncnc54)[C@H](OP(=O)(O)O)[C@@H]3O)[C@@H](O)[C@H]2O)C=CC1 [NADPH],Kd,[1],200 ± 5 nM
same,Kd,[2],130 ± 11 nM
Kvβ2 (β-subunit of the voltage-gated potassium channel) (Rattus norvegicus),Km,[3],240 ± 140 µM
CCCCC[C@H](O)/C=C/[C@H]1C(=O)C=C[C@@H]1C/C=C\CCCC(=O)O [PGJ2],Specific activity,[4],0.086 ± 0.019 min⁻¹
CCCCC/C=C\CC(=O)/C=C/C=C\C/C=C\CCCC(=O)O [12-oxoETE],Specific activity,[5],0.044 ± 0.007 min⁻¹
B1,Km,[6],283 ± 31 µM
same,kcat,[6],0.00267 s⁻¹
same,kcat/Km,[6],9.83 M⁻¹ s⁻¹
same,Km,[7],12000 ± 1000 µM
same,Km,[8],209 ± 49 µM
same,kcat,[8],0.00153 ± 0.0001 s⁻¹
same,kcat/Km,[8],7.67 ± 1.5 M⁻¹ s⁻¹
